Experiment [1] deals with Npu^C-CFN (Nostoc puminciforme PCC73102 (Npu)). In words: cell-based or functional assay.
Experiment [2] has as its target Ssp^C A136S-CFN (Synechocystis Species PCC6803 (Ssp)). In words: cell-based or functional assay.

Chain of Npu^C-CFN (Nostoc puminciforme PCC73102 (Npu)) (chain, as listed by the source): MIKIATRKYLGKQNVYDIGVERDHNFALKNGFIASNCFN

“Npu^N (AEY-Npu^N, product of plasmid 2 after cleavage of the His6-SUMO tag)”: the protein trans-splicing half-life (t1/2) at 30° C., in vitro PTS assay in experiment [1] was 50 s. Moreover, the rate of branch resolution in experiment [2] was 2 fold.

The record behind these values is patent US20210371467A1.
